Data from the supplement of paper PMC10065799, “High-throughput profiling of sequence recognition by tyrosine kinases and SH2 domains using bacterial peptide display” (eLife, 2023).

Key:
[1] = biological target: FGFR3 (UniProt P22607); experiment: phosphorylation enrichment, bacterial display (enrichment ratio); higher = better substrate or ligand; peptides without Tyr show the background
[2] = system: AncSZ; experiment: as above
[3] = biological target: EPHB2 (UniProt P29323); experiment: as above
Chain of EPHB2 (P29323 whole entry, looked up): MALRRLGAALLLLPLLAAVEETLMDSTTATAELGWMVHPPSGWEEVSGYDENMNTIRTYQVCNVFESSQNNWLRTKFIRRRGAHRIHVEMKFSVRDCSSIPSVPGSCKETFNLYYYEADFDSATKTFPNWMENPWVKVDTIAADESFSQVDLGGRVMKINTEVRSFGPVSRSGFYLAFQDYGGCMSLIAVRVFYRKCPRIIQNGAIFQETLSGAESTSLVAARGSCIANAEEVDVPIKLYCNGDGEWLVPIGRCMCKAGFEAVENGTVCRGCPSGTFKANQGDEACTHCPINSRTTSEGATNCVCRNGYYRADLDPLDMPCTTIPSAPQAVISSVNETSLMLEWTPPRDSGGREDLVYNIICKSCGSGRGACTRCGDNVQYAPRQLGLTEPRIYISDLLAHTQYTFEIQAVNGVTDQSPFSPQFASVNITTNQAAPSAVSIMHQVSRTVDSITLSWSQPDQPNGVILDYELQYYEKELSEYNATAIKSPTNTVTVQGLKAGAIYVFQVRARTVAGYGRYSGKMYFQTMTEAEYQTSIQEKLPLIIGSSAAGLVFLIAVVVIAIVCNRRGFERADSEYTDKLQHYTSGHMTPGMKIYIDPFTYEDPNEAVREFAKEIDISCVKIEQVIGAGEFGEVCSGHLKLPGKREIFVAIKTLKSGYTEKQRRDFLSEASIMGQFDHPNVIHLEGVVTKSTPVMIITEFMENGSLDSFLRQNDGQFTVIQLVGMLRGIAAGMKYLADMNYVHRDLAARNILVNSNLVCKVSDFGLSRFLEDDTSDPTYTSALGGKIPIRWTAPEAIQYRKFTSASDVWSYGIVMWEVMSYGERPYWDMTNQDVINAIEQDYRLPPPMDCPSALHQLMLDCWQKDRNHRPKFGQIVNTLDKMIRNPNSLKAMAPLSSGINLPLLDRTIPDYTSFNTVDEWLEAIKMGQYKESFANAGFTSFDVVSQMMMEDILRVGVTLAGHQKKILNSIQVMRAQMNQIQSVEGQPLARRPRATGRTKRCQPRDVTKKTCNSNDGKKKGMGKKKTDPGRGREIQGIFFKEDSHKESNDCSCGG

[4] = biological target: FGFR1 (UniProt P11362); experiment: as above
Chain of FGFR1 (P11362 whole entry, looked up): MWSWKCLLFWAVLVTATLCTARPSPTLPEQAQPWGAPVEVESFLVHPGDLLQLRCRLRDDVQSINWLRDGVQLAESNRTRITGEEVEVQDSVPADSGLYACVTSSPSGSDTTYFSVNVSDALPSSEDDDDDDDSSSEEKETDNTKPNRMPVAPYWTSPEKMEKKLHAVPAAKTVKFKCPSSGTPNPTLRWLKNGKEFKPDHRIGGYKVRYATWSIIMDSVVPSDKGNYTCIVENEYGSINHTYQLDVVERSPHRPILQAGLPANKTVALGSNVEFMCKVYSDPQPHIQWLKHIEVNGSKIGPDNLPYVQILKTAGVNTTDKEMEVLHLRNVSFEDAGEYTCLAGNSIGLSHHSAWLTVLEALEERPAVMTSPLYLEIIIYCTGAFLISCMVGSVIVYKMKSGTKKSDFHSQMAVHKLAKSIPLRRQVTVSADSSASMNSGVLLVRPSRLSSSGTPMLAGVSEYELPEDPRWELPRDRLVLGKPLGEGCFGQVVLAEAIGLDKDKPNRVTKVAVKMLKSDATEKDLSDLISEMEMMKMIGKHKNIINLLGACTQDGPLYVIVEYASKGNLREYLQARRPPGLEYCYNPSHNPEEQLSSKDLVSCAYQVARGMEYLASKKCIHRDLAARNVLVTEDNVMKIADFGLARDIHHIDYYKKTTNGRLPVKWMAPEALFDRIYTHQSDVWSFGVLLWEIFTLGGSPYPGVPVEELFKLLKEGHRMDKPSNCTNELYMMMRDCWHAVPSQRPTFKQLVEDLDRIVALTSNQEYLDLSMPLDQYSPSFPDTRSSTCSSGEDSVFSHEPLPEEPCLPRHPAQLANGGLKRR

[5] = biological target: MERTK (UniProt Q12866); experiment: as above
[6] = biological target: Fes (UniProt P07332); experiment: as above
Chain of Fes (P07332 whole entry, looked up): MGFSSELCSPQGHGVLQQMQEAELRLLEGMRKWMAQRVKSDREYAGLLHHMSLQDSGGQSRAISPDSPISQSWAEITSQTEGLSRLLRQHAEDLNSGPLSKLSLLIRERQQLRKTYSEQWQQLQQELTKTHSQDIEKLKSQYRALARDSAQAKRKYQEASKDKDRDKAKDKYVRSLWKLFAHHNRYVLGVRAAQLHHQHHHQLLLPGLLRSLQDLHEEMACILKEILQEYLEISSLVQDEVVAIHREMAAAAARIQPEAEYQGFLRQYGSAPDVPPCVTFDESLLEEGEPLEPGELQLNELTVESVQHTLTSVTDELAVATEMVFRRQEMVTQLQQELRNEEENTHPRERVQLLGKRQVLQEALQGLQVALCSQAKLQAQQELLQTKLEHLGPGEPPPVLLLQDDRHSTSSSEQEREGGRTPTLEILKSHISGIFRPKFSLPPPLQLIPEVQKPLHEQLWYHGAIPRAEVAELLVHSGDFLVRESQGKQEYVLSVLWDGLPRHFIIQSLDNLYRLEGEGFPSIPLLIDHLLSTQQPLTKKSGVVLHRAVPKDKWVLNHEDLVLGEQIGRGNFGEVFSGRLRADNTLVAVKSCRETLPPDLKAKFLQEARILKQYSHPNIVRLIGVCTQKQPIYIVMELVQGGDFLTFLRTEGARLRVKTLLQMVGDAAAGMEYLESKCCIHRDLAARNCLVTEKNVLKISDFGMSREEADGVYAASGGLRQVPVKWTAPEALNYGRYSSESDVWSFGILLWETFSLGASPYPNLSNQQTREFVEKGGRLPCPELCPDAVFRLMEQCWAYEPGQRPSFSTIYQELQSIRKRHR

[7] = biological target: EPHB1 (UniProt P54762); experiment: as above
[8] = system: c-Src; experiment: as above
[9] = biological target: Hck (UniProt P08631); experiment: as above
Chain of Hck (P08631 whole entry, looked up): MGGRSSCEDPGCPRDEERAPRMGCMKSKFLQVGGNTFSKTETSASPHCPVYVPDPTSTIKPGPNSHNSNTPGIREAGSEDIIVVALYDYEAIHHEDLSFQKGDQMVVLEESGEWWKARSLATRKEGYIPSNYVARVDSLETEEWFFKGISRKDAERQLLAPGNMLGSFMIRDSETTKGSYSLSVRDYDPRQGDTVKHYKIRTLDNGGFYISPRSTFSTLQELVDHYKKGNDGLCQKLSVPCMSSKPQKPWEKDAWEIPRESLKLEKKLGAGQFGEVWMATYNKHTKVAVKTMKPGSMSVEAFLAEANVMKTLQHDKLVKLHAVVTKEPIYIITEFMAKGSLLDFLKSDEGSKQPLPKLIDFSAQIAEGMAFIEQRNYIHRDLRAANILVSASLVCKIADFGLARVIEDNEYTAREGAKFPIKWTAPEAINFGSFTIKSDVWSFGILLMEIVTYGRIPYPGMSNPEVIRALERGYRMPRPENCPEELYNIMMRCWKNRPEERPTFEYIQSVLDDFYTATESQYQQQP

[10] = system: c-Abl (mouse); experiment: as above
[11] = system: Fer (mouse); experiment: as above
[12] = biological target: Fyn (UniProt P06241); experiment: as above
Chain of Fyn (P06241 whole entry, looked up): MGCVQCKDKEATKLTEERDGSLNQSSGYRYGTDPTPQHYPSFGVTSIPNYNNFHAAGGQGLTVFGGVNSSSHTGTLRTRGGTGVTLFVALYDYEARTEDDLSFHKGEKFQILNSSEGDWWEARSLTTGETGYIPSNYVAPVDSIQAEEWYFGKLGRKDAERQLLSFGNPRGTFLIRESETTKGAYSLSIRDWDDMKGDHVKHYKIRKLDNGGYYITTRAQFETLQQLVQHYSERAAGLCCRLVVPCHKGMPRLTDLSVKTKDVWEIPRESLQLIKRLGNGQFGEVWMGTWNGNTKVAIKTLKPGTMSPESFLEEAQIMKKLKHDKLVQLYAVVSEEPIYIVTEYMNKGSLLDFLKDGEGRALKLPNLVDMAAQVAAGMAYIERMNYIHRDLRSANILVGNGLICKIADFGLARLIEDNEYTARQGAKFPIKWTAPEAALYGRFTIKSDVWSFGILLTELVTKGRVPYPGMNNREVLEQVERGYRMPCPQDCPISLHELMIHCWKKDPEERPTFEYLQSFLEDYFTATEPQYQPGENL

[13] = biological target: Jak2 (UniProt O60674); experiment: as above
[14] = biological target: c-Src SH2; experiment: SH2 binding enrichment of the phosphorylated peptide, bacterial display (enrichment ratio); higher = better substrate or ligand; peptides without Tyr show the background
[15] = biological target: SHP2-C SH2; experiment: as above
[16] = biological target: Grb2 SH2 (UniProt P62993); experiment: as above
Chain of Grb2 SH2 (P62993 whole entry, looked up, the tested form may be a part): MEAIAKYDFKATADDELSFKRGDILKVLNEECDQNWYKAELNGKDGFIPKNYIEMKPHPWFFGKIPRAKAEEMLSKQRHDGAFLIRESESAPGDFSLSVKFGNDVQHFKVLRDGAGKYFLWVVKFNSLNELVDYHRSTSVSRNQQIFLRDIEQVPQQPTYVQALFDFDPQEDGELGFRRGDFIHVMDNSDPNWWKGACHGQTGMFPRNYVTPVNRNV
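For SH2 binding enrichment of the phosphorylated peptide, bacterial display in this document: peptide library displayed on the E. coli surface as eCPX fusions, selected cells deep-sequenced, score is each peptide's frequency after selection divided by its frequency in the input.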
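For phosphorylation enrichment, bacterial display in this document: 11-residue human phosphosite peptides and single-mutation variants displayed on the E. coli surface, counted by deep sequencing, each peptide's frequency after selection divided by its frequency in the unselected input library; frequency after pTyr selection over input frequency; kinase dosed for 20-30% of maximal phosphorylation in three min.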

Chain of FGFR3 (P22607 whole entry, looked up): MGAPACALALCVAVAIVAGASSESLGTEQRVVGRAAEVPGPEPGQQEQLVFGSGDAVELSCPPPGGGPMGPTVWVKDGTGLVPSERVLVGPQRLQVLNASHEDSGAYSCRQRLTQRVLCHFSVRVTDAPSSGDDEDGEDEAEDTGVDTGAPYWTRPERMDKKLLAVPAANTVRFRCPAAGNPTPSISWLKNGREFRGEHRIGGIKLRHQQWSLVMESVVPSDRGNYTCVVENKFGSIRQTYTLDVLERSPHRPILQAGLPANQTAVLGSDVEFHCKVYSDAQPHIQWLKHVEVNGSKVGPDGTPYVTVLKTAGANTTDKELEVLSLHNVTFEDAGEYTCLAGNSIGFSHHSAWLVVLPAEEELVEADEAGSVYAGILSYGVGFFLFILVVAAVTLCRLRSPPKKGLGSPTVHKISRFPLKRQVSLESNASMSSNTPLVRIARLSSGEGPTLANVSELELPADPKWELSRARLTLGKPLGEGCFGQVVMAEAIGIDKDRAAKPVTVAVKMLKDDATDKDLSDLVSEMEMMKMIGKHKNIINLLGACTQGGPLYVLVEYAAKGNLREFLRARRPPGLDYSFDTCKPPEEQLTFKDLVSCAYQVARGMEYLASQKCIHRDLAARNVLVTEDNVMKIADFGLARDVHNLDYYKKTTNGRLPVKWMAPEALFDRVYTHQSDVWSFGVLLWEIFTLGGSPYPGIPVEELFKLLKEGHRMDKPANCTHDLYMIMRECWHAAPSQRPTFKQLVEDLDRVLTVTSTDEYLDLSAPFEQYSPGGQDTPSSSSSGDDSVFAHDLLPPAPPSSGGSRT

Row | Sequence | phosphorylation enrichment [1] | phosphorylation enrichment [2] | phosphorylation enrichment [3] | phosphorylation enrichment [4] | phosphorylation enrichment [5] | phosphorylation enrichment [6] | phosphorylation enrichment [7] | phosphorylation enrichment [8] | phosphorylation enrichment [9] | phosphorylation enrichment [10] | phosphorylation enrichment [11] | phosphorylation enrichment [12] | phosphorylation enrichment [13] | SH2 binding enrichment [14] | SH2 binding enrichment [15] | SH2 binding enrichment [16]
1 | FGVVGYLAIMF [RNF175_Y155] | 0.819 | 1.04 | 0.579 | 0.474 | 0.532 | 1.44 | 0.795 | 0.443 | 0.655 | 1.37 | 0.484 | 0.519 | 1.45 | 0.653 | 0.872 | 1.11
2 | FHLLPYTVRAM [PARS2_Y93_YF] | 0.551 | 0.8 | 0.633 | 0.564 | 0.438 | 0.971 | 0.581 | 0.711 | 0.501 | 0.546 | 0.514 | 0.446 | 0.691 | 1.34 | 1.57 | 1.11
3 | FISVGYVDDTL [HLA-B_Y51_Q56L] | 0.801 | 1.12 | 0.736 | 0.572 | 0.436 | 1.21 | 0.738 | 0.557 | 0.485 | 0.772 | 0.652 | 0.486 | 1.03 | 0.728 | 0.896 | 1.05
4 | FKDYFYCWNTF [AICDA_Y146] | 7.02 | 2.04 | 2.87 | 8.79 | 2.8 | 1.34 | 4.05 | 1.41 | 0.557 | 1.22 | 1.46 | 0.652 | 3.71 | 0.474 | 0.662 | 0.878
5 | FLRKEYGGVNV [CBR3_Y81_L84V] | 0.495 | 0.644 | 0.4 | 0.416 | 0.471 | 0.916 | 0.391 | 0.578 | 0.425 | 0.612 | 0.475 | 0.452 | 0.598 | 0.458 | 0.698 | 0.984
6 | FNNPAYFVLEG [INPPL1_Y986_YF] | 5.18 | 1.25 | 0.588 | 7.65 | 3.7 | 1.09 | 0.621 | 0.875 | 0.578 | 0.816 | 0.501 | 0.679 | 4.57 | 2.06 | 0.953 | 1.01
7 | FPKDVYVDSKD [NDUFAF4_Y69_L65P] | 0.59 | 0.868 | 0.36 | 0.588 | 0.377 | 0.839 | 0.38 | 0.416 | 0.444 | 0.543 | 0.367 | 0.409 | 0.769 | 0.542 | 0.821 | 1.13
8 | FPRAWCRRSIA [KIAA1109_Y4272_Y4272C] | 0.441 | 0.908 | 0.484 | 0.48 | 0.562 | 0.686 | 0.519 | 0.523 | 0.466 | 0.641 | 0.455 | 0.557 | 0.588 | 0.464 | 0.4 | 0.759
9 | FQASFYRRGDR [LTK_Y677_R673Q_YF] | 0.523 | 0.717 | 0.486 | 0.532 | 0.511 | 0.688 | 0.443 | 0.525 | 0.501 | 0.647 | 0.495 | 0.55 | 0.441 | 0.295 | 0.38 | 0.411
10 | FRDMDYRSFPH [RBM10_Y41_R46H_YF] | 0.449 | 0.55 | 0.388 | 0.577 | 0.385 | 0.698 | 0.442 | 0.436 | 0.314 | 0.549 | 0.407 | 0.419 | 0.667 | 0.565 | 0.787 | 0.911
11 | FRPHLYGTPSR [ADGRE2_Y670_S665F] | 0.511 | 0.682 | 0.458 | 0.747 | 0.513 | 0.842 | 0.481 | 0.572 | 0.948 | 0.718 | 0.945 | 0.546 | 0.611 | 1.77 | 1.65 | 1.98
12 | FRSSLYSLMET [MYO5C_Y633_L634S] | 0.947 | 1.12 | 1.84 | 0.898 | 12.4 | 1.16 | 4.17 | 4.03 | 4.03 | 0.629 | 9.51 | 4.25 | 0.77 | 1.24 | 0.564 | 0.672
13 | FSGIFYKPESL [L2HGDH_Y103_H98Y_YF] | 0.673 | 0.968 | 0.5 | 0.436 | 0.431 | 1.03 | 0.5 | 0.611 | 0.393 | 0.81 | 0.471 | 0.438 | 0.935 | 0.56 | 1.27 | 1.17
14 | FSGQVYRQRRK [TH_Y230_D227G] | 0.64 | 0.855 | 0.772 | 0.546 | 1 | 0.697 | 0.604 | 1.13 | 0.718 | 0.789 | 0.582 | 0.774 | 0.769 | 0.244 | 0.472 | 0.675
15 | FSPPFYHRNCM [HGD_Y334_R330S_YF] | 0.632 | 0.931 | 0.545 | 0.513 | 0.535 | 0.89 | 0.483 | 0.623 | 0.457 | 0.767 | 0.465 | 0.377 | 0.971 | 0.633 | 0.818 | 0.981
16 | FTHSDYQFGQR [PKP2_Y166_S169G_YF] | 0.474 | 0.697 | 0.471 | 0.465 | 0.469 | 0.687 | 0.389 | 0.457 | 0.518 | 0.553 | 0.453 | 0.443 | 0.583 | 0.626 | 1.05 | 1
